For assay [1], the target named is T1, human CD96v1 on transiently transfected HEK cells (human, UniProt P40200 22-585).
T1 construct: whole, on cells
T1 sequence (looked up): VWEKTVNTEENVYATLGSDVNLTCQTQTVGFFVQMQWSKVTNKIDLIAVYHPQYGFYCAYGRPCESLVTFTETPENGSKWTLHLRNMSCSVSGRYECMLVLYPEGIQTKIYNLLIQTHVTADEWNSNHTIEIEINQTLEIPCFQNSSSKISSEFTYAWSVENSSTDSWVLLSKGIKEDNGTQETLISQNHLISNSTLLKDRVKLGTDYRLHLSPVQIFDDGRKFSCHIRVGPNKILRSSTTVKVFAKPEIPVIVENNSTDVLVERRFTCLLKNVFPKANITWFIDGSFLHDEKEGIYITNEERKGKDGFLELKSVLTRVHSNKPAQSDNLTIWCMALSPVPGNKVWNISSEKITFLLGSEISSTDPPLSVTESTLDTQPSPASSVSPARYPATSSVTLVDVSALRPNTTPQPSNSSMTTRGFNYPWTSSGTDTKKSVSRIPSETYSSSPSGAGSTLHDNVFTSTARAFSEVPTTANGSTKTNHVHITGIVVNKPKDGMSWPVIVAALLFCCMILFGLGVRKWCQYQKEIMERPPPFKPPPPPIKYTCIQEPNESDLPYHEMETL
Briefly: flow cytometry on transiently transfected HEK cells (Human CD96v1). A general note: In flow cytometry, cells or beads pass a laser one at a time.

For assay [2], the target named is T2, human CD96v2 expressed on cells (CHO cells; transiently transfected HEK cells) (human, UniProt P40200-2 22-569).
T2 construct: whole, on cells; the cell is named under assay; also called CHO-huCD96; hCD96v2
T2 sequence (looked up): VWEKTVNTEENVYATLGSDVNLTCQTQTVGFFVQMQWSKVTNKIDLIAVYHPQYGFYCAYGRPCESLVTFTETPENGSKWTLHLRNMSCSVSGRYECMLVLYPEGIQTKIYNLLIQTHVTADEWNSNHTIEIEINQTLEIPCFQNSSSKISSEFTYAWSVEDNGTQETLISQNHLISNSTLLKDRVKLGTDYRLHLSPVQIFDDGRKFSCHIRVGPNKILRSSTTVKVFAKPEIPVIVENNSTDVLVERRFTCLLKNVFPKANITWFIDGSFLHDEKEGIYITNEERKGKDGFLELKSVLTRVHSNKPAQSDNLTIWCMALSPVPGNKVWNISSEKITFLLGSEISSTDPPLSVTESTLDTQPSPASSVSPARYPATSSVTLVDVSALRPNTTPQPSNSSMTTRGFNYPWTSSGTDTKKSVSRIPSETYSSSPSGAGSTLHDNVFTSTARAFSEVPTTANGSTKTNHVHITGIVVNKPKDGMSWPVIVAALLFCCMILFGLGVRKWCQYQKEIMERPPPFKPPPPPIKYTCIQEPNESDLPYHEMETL
Briefly: flow cytometry on transiently transfected HEK cells; upper end of range, n = 3.

The target in assay [3] is T3, cynomolgus monkey CD96v2 expressed on cells (CHO cells; transiently transfected HEK cells) (cynomolgus monkey, UniProt A0A2K5TWV6 22-569).
T3 construct: the cell is named under assay; also called CHO-cyCD96; Cyno CD96v2
T3 sequence: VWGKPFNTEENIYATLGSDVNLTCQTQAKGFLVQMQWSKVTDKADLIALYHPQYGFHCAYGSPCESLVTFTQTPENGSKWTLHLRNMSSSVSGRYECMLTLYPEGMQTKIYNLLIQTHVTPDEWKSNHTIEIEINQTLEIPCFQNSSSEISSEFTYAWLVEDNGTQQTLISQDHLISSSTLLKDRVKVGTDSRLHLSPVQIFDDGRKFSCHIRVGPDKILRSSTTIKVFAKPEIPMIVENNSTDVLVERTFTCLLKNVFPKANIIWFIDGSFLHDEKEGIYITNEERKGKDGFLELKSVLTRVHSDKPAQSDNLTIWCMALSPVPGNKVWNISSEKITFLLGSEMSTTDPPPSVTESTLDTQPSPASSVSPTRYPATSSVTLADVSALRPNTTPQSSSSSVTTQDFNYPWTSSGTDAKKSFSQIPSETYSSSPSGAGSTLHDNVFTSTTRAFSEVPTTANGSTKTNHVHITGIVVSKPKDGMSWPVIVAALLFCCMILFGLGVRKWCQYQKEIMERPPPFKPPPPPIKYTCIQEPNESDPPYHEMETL
The description is as above.

In assay [4] the target is T1, human CD96v1 on transiently transfected …. The assay is described as above.
Assay [5] concerns the target T4, cynomolgus monkey CD96v1 on transiently transfected HEK cells (cynomolgus monkey).
T4 construct: whole, on cells; also called Cyno CD96v1
The description is as above.

Assay [6] deals with T5, blood derived cynomolgus monkey CD96v2 on transiently transfected HEK cells (cynomolgus monkey).
T5 construct: also called Blood derived Cyno CD96v2
The description is as above.

In assay [7] the target is T6, recombinant murine CD96v2 (mouse, UniProt Q3U0X8 22-536, limits assumed).
T6 construct: Soluble recombinant protein used in MSD-SET; also called mouse CD96
T6 sequence (looked up): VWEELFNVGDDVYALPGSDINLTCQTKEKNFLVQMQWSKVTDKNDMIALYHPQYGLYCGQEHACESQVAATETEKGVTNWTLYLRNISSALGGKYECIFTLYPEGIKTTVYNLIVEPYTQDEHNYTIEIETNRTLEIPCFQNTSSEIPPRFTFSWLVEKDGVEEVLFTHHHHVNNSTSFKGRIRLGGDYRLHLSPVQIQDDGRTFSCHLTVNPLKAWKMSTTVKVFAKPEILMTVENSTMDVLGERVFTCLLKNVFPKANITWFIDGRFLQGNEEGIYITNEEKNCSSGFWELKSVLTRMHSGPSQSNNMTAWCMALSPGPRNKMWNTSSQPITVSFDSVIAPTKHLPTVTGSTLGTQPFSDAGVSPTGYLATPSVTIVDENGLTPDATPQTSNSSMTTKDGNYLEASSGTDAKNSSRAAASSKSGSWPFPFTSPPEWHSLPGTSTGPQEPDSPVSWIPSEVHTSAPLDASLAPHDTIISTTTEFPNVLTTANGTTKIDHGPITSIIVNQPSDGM
Briefly: MSD-SET solution equilibrium titration, antibody titrated against constant CD96, free antigen detected.

This is an account of results in US12528864 (GlaxoSmithKline, dated 2026).

B1: 42Y073-86F08-66 (antibody)
heavy: not shown
light: DIQLTQSPSSLSASVGDRVTITCRASQSISSYLNWYQQKPGKAPKLLIYAASSLQSGVPSRFSGSGSGTDFTLTISSLQPEDFATYYCQQVLHTITFGGGTKVEIKRTVAAPSVFIFPPSDEQLKSGTASVVCLLNNFYPREAKVQWKVDNALQSGNSQESVTEQDSKDSTYSLSSTLTLSKADYEKHKVYACEVTHQGLSSPVTKSFNRGEC
notes: also called GSK 6097608; GSK6097608
The term EC50 (read off the curve) denotes the concentration at which the effect is half-maximal. One may read the EC50 as the concentration giving half of the maximal effect. For the molecule B1, the “EC50 (read off the curve)” value in assay [1] was roughly 3 nM. Also, the EC50 in assay [2] stood at 8.78 nM; in assay [3], 11.2 nM; in assay [4] it was 8.89 nM; in assay [5], 12.3 nM; in assay [6] it was 10.2 nM. In addition, the “IC50 (read off the curve)” value in assay [7] is roughly 0.5 nM.
